Measured values: publication PMC8076310

T1: Fc-GDF15 WT (knob-Fc-(G4S)5-GDF15 paired with hole-Fc, wildtype GDF15) (human) (UniProt Q99988)
T1 sequence (Q99988 whole entry, looked up): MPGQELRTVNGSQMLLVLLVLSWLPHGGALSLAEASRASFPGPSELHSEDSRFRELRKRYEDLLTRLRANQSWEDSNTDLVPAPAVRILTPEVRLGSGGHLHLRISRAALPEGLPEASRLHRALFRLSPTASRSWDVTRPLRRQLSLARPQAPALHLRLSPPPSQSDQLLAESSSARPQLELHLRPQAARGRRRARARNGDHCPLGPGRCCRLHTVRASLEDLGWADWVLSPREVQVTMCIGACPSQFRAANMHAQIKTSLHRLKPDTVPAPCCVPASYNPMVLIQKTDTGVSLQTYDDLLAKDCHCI

T2: Fc-GDF15 WT (wildtype Fc-GDF15 control; knob-Fc-(G4S)5-GDF15 paired with hole-Fc) (human) (UniProt Q99988)
T2 sequence (Q99988 whole entry, looked up): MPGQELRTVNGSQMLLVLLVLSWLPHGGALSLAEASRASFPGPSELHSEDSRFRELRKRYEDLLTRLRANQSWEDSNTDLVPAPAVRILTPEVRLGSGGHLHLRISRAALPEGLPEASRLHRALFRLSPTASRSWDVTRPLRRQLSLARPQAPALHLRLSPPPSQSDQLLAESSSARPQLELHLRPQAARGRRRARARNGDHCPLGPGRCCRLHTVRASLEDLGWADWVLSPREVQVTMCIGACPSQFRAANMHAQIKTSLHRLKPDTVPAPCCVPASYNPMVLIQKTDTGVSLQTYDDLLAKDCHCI


Legend:
[1] = target: Fc-GDF15 Mutant 2C (A3N/N5T/V98I) (human); assay: SPR; Biacore T200, 37 °C; Fc-GDF15 captured on anti-human IgG on a CM4 chip; GFRAL injected as analyte, two-fold series 25-1.56 nM (human) or 100-6.25 nM (murine), 60 s association, 120 s dissociation; 1:1 Langmuir model; duplicate
[2] = target: Fc-GDF15 Mutant 3 (R4N/G6T) (human); assay: as above
[3] = target: Fc-GDF15 Mutant 3C (R4N/G6T/V98I) (human); assay: as above
[4] = target: Fc-GDF15 Mutant 3A (R4N/G6T/L36H) (human); assay: as above
[5] = target: T1, Fc-GDF15 WT (knob-Fc-(G4S)5-GDF15 paired with hole-Fc, wildtype GDF15) (human); assay: as above
[6] = target: Fc-GDF15 Mutant 2 (A3N/N5T) (human); assay: as above
[7] = target: Fc-GDF15 Mutant 2A (A3N/N5T/L36H) (human); assay: as above
[8] = target: Fc-GDF15 Mutant 3B (R4N/G6T/L36R) (human); assay: as above
[9] = target: Fc-GDF15 Mutant 2C (A3N/N5T/V98I) (human); assay: SPR; Biacore T200, 37 °C; anti-human IgG amine-coupled on a CM4 chip captures Fc-GDF15; GFRAL ECD injected in two-fold dilutions (human 25 to 1.56 nM, murine 100 to 6.25 nM), 60 s association, 120 s dissociation; double referencing, 1:1 Langmuir model; duplicate
[10] = target: Fc-GDF15 Mutant 3 (R4N/G6T) (human); assay: as above
[11] = target: Fc-GDF15 Mutant 3A (R4N/G6T, L36H) (human); assay: as above
[12] = target: Fc-GDF15 Mutant 3B (R4N/G6T, L36R) (human); assay: as above
[13] = target: Fc-GDF15 Mutant 3C (R4N/G6T, V98I) (human); assay: as above
[14] = target: Fc-GDF15 Mutant 2 (A3N/N5T) (human); assay: as above
[15] = target: Fc-GDF15 Mutant 2A (A3N/N5T, L36H) (human); assay: as above
[16] = target: T2, Fc-GDF15 WT (wildtype Fc-GDF15 control; knob-Fc-(G4S)5-GDF15 paired with hole-Fc) (human); assay: as above

Binder	koff [1] [s⁻¹]	kon [1] [M⁻¹ s⁻¹]	koff [2] [s⁻¹]	kon [2] [M⁻¹ s⁻¹]	koff [3] [s⁻¹]	kon [3] [M⁻¹ s⁻¹]	koff [4] [s⁻¹]	kon [4] [M⁻¹ s⁻¹]	koff [5] [s⁻¹]	kon [5] [M⁻¹ s⁻¹]	koff [6] [s⁻¹]	kon [6] [M⁻¹ s⁻¹]	koff [7] [s⁻¹]	kon [7] [M⁻¹ s⁻¹]	koff [8] [s⁻¹]	kon [8] [M⁻¹ s⁻¹]	Kd [9] [nM]	Kd [10] [nM]	Kd [11] [nM]	Kd [12] [nM]	other results
Soluble mouse GFRAL extracellular domain (ECD) (receptor) SQTNDCAHLIQKCLIDANGCEQSWRSMEDTCLTPGDSCKINNSLHCNLSIQALVEKNFQFKECLCMDDLHCTVNKLFGKKCTNKTDNMEKDNKDKWNLTTTPFYHGFKQMQSCLEVTEACVGDVVCNAQLALYLKACSANGNLCDVKHCQAAIRFFYQNMPFNTAQMLAFCDCAQSDIPCQQSKETLHSKPCALNIVPPPTCLSVIHTCRNDELCRTHYRTFQTECWPHITGKCHEDETCISMLGKQDLTCSGSESCRAAFLGTFGTVLQVPCACRGVTQAEEHVCMIFQHMLHSKSCFNYPTPNVKDISSYEKKNSKEITLTGFNSFFNGE																	95.8	300	178	82.8	Kd [13]: 124 nM; Kd [14]: 245 nM; Kd [15]: 186 nM; Kd [16]: 230 nM
Soluble human GFRAL extracellular domain (ECD) (receptor) SQTNNCTYLREQCLRDANGCKHAWRVMEDACNDSDPGDPCKMRNSSYCNLSIQYLVESNFQFKECLCTDDFYCTVNKLLGKKCINKSDNVKEDKFKWNLTTRSHHGFKGMWSCLEVAEACVGDVVCNAQLASYLKACSANGNPCDLKQCQAAIRFFYQNIPFNIAQMLAFCDCAQSDIPCQQSKEALHSKTCAVNMVPPPTCLSVIRSCQNDELCRRHYRTFQSKCWQRVTRKCHEDENCISTLSKQDLTCSGSDDCKAAYIDILGTVLQVQCTCRTITQSEESLCKIFQHMLHRKSCFNYPTLSNVKGMALYTRKHANKITLTGFHSPFNGE																	5.52	11.2	6.09	3.68	Kd [13]: 5.44 nM; Kd [14]: 10 nM; Kd [15]: 6.03 nM; Kd [16]: 11 nM

The next lines start with results.

koff [1] [s⁻¹]	kon [1] [M⁻¹ s⁻¹]	koff [2] [s⁻¹]	kon [2] [M⁻¹ s⁻¹]	koff [3] [s⁻¹]	kon [3] [M⁻¹ s⁻¹]	koff [4] [s⁻¹]	kon [4] [M⁻¹ s⁻¹]	koff [5] [s⁻¹]	kon [5] [M⁻¹ s⁻¹]	koff [6] [s⁻¹]	kon [6] [M⁻¹ s⁻¹]	koff [7] [s⁻¹]	kon [7] [M⁻¹ s⁻¹]	koff [8] [s⁻¹]	kon [8] [M⁻¹ s⁻¹]	Kd [9] [nM]	Kd [10] [nM]	Kd [11] [nM]	Kd [12] [nM]	Binder	other results
0.179	1.88e+06	0.474	1.59e+06	0.188	1.69e+06	0.2	1.13e+06	0.364	1.61e+06	0.372	1.52e+06	0.16	865000	0.105	1.26e+06					mouse GFRAL extracellular domain (ECD), residues 19-350 (domain or fragment) SQTNDCAHLIQKCLIDANGCEQSWRSMEDTCLTPGDSCKINNSLHCNLSIQALVEKNFQFKECLCMDDLHCTVNKLFGKKCTNKTDNMEKDNKDKWNLTTTPFYHGFKQMQSCLEVTEACVGDVVCNAQLALYLKACSANGNLCDVKHCQAAIRFFYQNMPFNTAQMLAFCDCAQSDIPCQQSKETLHSKPCALNIVPPPTCLSVIHTCRNDELCRTHYRTFQTECWPHITGKCHEDETCISMLGKQDLTCSGSESCRAAFLGTFGTVLQVPCACRGVTQAEEHVCMIFQHMLHSKSCFNYPTPNVKDISSYEKKNSKEITLTGFNSFFNGE	
0.0574	1.03e+07	0.113	1e+07	0.0571	1.05e+07	0.0402	6.61e+06	0.12	1.07e+07	0.1	1e+07	0.039	6.47e+06	0.0283	7.72e+06					human GFRAL extracellular domain (ECD), residues 19-351 (domain or fragment) SQTNNCTYLREQCLRDANGCKHAWRVMEDACNDSDPGDPCKMRNSSYCNLSIQYLVESNFQFKECLCTDDFYCTVNKLLGKKCINKSDNVKEDKFKWNLTTRSHHGFKGMWSCLEVAEACVGDVVCNAQLASYLKACSANGNPCDLKQCQAAIRFFYQNIPFNIAQMLAFCDCAQSDIPCQQSKEALHSKTCAVNMVPPPTCLSVIRSCQNDELCRRHYRTFQSKCWQRVTRKCHEDENCISTLSKQDLTCSGSDDCKAAYIDILGTVLQVQCTCRTITQSEESLCKIFQHMLHRKSCFNYPTLSNVKGMALYTRKHANKITLTGFHSPFNGE	
